Laboratory results taken from publication PMC3766439 (Clinical cancer research : an official journal of the …, 2013).

Molecular target: Nus-Tag EGFRvIII ECD deletion mutant CT 292–346 (Homo sapiens, UniProt P00533)
Test: ELISA

B1: D2C7 monoclonal antibody (antibody, V domains shown)
VH: EVHLQQSGPELEKPGASVKISCKASGYSFTGYNMNWVKQSNGKSLEWIGNIDPYYGDTDYDQKFKGKATLTADKSSNTVYMQLQSLTSEDSAVYYCARGAHRDYYAMDYWGQGTSVTVSS
VL: DIQMTQSPASLSASVGETVTITCRTSENIYIYLAWYQQKQGKSPQLLVYNAKTLAEGVPSRFSGSGSGTQFSLKINGLQPEDFGGYYCQQHYGTPYTFGGGTKLEKK
B1: binds.
